Consider one protein from FireProtDB (doi:10.1016/j.jmb.2006.03.027).

The conditions of this series: Saccharomyces cerevisiae (strain ATCC 204508 / S288c); pH 7; Thermal; CD; potassium phosphate 25 mM; reversible: Yes; whole UniProt chain shown.

As a reminder, the Tm is the temperature at the midpoint of the melting transition.

Values joined by “and” are separate entries in the source; they are usually repeats but may differ in a detail not shown here. Equal entries are not always repeated.

B1: GrpE protein homolog, mitochondrial wild type, P38523 (protein)
chain: MRAFSAATVRATTRKSFIPMAPRTPFVTPSFTKNVGSMRRMRFYSDEAKSEESKENNEDLTEEQSEIKKLESQLSAKTKEASELKDRLLRSVADFRNLQQVTKKDIQKAKDFALQKFAKDLLESVDNFGHALNAFKEEDLQKSKEISDLYTGVRMTRDVFENTLRKHGIEKLDPLGEPFDPNKHEATFELPQPDKEPGTVFHVQQLGFTLNDRVIRPAKVGIVKGEEN
For the protein B1, the Tm is 53.2 °C and 52.5 °C and 52.4 °C.
